This test addresses Erk2 (UniProt P63086). Briefly: ITC. On the technique in general: In ITC the heat of successive injections is recorded.

For the substance “HePTP 15-339 (includes the KIM) (domain or fragment)”, the Kd came to 549 nM, the dH is -10.8 kcal/mol and the stoichiometry N was 0.95.

As a reminder, the Kd is the concentration at which binding is half-saturated. The term stoichiometry N denotes a count of units in the complex or per binding partner.

The values above are taken from PMC2908255.
